Assay: yeast display, Sf9 membrane polyspecificity reagent, FACS + sequencing; frameworks hold sequencing errors
Summary of the method: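 Polyreactivity labels are assigned by the sorting gate from which each nanobody was recovered. The gates were low and high (top ~1%), set on anti-HA fluorescence for expression and streptavidin fluorescence for reagent binding. Before sorting, galactose-induced (36–48 hours) yeast display cells were stained for 1 hour at 4 °C with 10% biotinylated, detergent-solubilized Sf9 membrane reagent.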

| Sequence | polyreactivity (PSR sort gate) |
| --- | --- |
| QVQLVESGGGLVQAGGSLRLSCAASGRTFLSYAMGWSRQAPVTERELVATITRRGGSTYYADSVKGRFTISRDNAKNTVYLQMNSLKPEDTAVSYCAAYYRQYSYSEFGYWGQGTQVTVSS | high polyreactivity |
| QVQLVESGGGLVQAGGSLRLSCAASGRIFSLYAMGWYRQAPGKERELVAGITWRGGSTYYADSVKGRFTISRDNAKNTVYLQMNSMKPEDTAVYYCAARPWNWRDYDYWGQGTQVTVSS | high polyreactivity |
| HVQLVESGGGLVQAGGSLRLSCAASGFMFSGYAMGWYRQAPGKVRELVAAITWSGSNTFYADSVKGRFTISRDNAKNTVYLQRNSLKPEDTAVYYCNAVSKYKRSDYYYWGQGTQVTVSS | high polyreactivity |
| QFQLVESGGGLVQAGGSLRLSCAASGFTIYIYAKGWYRQAPGKERELVAAINFRGGSTYYADSVKGRFTISGDNAKKTVYLQLNSLKPEDTAVYYCAAVPRTYSGYYYWGQGTQVSVSS | high polyreactivity |
| QVQLVESGGGLVQAGGSLRLSCAASGSTFAPNTMGWYRQAPGKERELVARITSSDGSTTYADSVKGRFTISRDNAKNTVYLQRNSLKPEDTAVYYCAADYGRRWGYDYWGQGTQVTVSS | low polyreactivity |
| QVQLVESGGGLVQAGGSLRLSCAASGRTLKINAMGWYRQAPGKERELVARISAGRTYYADSVKGRFTISRDNAKNTVYLQMNSLKPEDTAVYYCARRTNRPPWGFEYWGQGTQVTVSS | high polyreactivity |
| QVQLVESGGGLVQAGGSLRLSCSASGSTFYVYAMGWYRQAPGKERELVAAITDSGGSTYADSVKGRFTISRDNAKNTVYLQMNSLKPEDTAVYADSTYNWYYYYWGQGTQVTVSS | low polyreactivity |
| QVQLVESGGGLVQAGGSLRLSCAASGIIFPYYAMGWYRQAPGKERELVARITRRGGSTYYADSVKGRFTISRDNAKNTVYLQMNSLKPEDTAVYYCAAYAPYYRTMEYWGQGTQVTLSS | high polyreactivity |
| QVQILESGGWLVQAGGSLRLSCASSGRTFDVYAMGWYRQAPGKERELVAAISWGAGNTYYADSVKGRFTISRDNAKNTVYLQMNSLKPEDTAVYYCAAEDDWSEYDYWGQGTQVTVSS | high polyreactivity |
| QVQLVESGGGLVQAGGSLRLSCAASGSTFNTNAMAWYRHAPGKERELVAAISWSSTRTYYADSVKGRFTISRDNAKNTVYLQMNSLKPEDTAVYYCAAATYQSRYFQRFDYWGQGTQVTVSS | high polyreactivity |
| QVQLVESGGCLVQAGGSLRLSCAASGFTFYWYTMGWYRQAPGKERELVAAISRSGGDTDYADSVKGRFTISRDTAKNTVYLQMDSLQPEDTAVYYCNAGYFITHNYKYDYGGQGTQVTVSS | low polyreactivity |
| QVQLVESGGGLVQAGGSLRLSCAASGSTFRYNAMGWYRQAPGKERELVAAITSTGDSTYYADSVKGRFTISRDNAKNTVYLQMNSLKPEVTAVYYCAARSYASPGWRYEFWGQGTQVTVSS | low polyreactivity |
| QVQLEESGGGLVQAGGSLRLSCAASGGILVFYALGWYRQAPGTERELVAAINVSGRSTYYADSVKGRFTISRDNAKNTVYVQMNSLKPEDTAVYYCAADYYYVWYDYWGQGTQVTVSS | low polyreactivity |
| QVQLEESGGGLVQAGGSLRLSCAASGFTSYYAMGWYRQAPGKERELVAAIRYSTVSTYYADAVKGRFTISRDNAKNTVYLQMNIMKPEDTAVYYCAAQRRPYLPGHYYYWGQGTQVTVSS | high polyreactivity |
| QVQLVESGGGLVQAGGSLRLSCAASGSTFYLNAMGWYRQAPGKERELVAAISSGGRTYYADSVKGRFTISRDNAKNTVYLQMNSLKPEDTAVYYCNAVRYLRGAYNYWGQGTQVTVSS | high polyreactivity |
| QVQLVESGGGLVQAGGSLRLSCAASGRIFRVYAMGWYRQAPGKERELVAAISSGGSTNYADSVKGRFTISRDNANNTVYLQMNSLKPEDTAVYYCAATVRGVGYRYYYWGQGTQVTVSS | high polyreactivity |
| QFQLVESVGGLVQAGGSLRLSCAASGRTGVNAMGWYRQAPRKERELVAAINNGDSTYYADSVKGRFTISRDNAKNTVYLQMNSLKPEDTAVYYCAARSALYPKYESWGQGTQVTVSS | low polyreactivity |
| QVQLVESGGGLLQAGGSLRISCAASVSIFYHYAMGWYRQAPGKERELVAAISWRGGSTNYADSVKGRFTISRDNAKNTVYLQMNSLKPEDSAVYYCNAVQRRREYYWGQGTQVTVSS | high polyreactivity |
| QVQLVESAGGLVQAGGSLRLSCAASGFTFSSYVMGWYRQAPGKARELVAAISSSGARTYYADSVKGRFTISRDNAKNTVYLQMNSLKPEDNADYYCAAENSPRPYDYWGQGTQVTVSS | high polyreactivity |
| QVQLVESGGCLVQAGGRLRLSCAASGFIFGRYAMGWYRQAPGKERELVAAITWSGGSTYYADSVKGRFTISRDNAKNTVYLQMNSLKPQDTAVYYCAAYAYAPRDGYGWRKYRFYYWGQGTQVTVSS | high polyreactivity |
| QVQLVESGGGLVKAGGSLRLSCAASGRTFLRNAMGWYRQAPGKERELVATITRGGSTYYADSVKGRFTISRDNAKYTCYLEIISLIPEDTAVYYCAKDITGGFRRPDYGYLGQGTQVTVSS | low polyreactivity |
| QVQLVEAGGGLVQAGGSLRLSCAASGYIFFFYAMGWYRQAPGKERELVASITYRGGSTYYADSVKGRFTISRDNAKNTVYLQMNSLIPEDTAVYYCNVDGGGPLGPQGFPFDYWGQGTQVTVSS | low polyreactivity |

| Sequence | polyreactivity (PSR sort gate) |
| --- | --- |
| QVQLVESGGGLVQAGGSLRLSCAASGNIFTTYAMGWYRQAPGKERELVAAISRTGGRTSYADSVKGRFTISRDNAKNTVYLEMNSLKPVDTAVYYCADTLWRQSNLEYWGQGTQVTVSS | high polyreactivity |
| QVQLVESGGGLVQAGGSLRLSCAASGSTGLNAMGWYRQAPGKERELVAAITWSGGSTYYADSVKGRFTISRDNAKNTVYLQMNSLKPVDTAVYYCAAQYTWYKSRYGYWGQGTQVTVSS | high polyreactivity |
| QVQLVESGGGLVQAGGSLRLSCAASGSIFRGYAMGWYRQAPGKERELVAAITFSGGSTYADSVKGRFTISRDNAKNTVYFQMNSLKPEDTAVYDCAAKRTGHNWFTVYPYYSWGQGTQVTVSS | low polyreactivity |
| QVQLVESGGGLVQAGGSLRLSCAASGIIFRTYAMGWYRQAPGKERELVAAINSDGSTYYADSVKGRFTISRDNAKNTVYLQMNSLKPEDTAVYYCAAVVWRIHAYYWAVDGWYYYWGQGTQVTVSS | high polyreactivity |
| QVQLVESGGVLVQAGGSLRLSCAASGSIFGVYTMGWYRQAPGKERELVAAISGSGGSTYYADSVKGRFTISRDNAMNTVYLQMNSLKPEDTAVYYCATRFPKIPPYDSWGQGTQVTVSS | low polyreactivity |
| QVQLVESGGGLVQAGGSLRLSCAASGSIFGYYTKVWYRQARGKEREFVAAINTSGGSTYADSVKGRCTISRDNAKNTVYLQMNSLKPEDTAVYYCAADGYYEYTWGEYDSWGQGTQVTVSS | low polyreactivity |
| QVQLVESGGGLVQAGGSLRLSCAASGLIFYTNAMGWYRQAPGKERELVAAIDRASTNYADSVKGRFTISRDNAKNTVYLQMNSLKPEDTAVYYCAAGAGRSTFTVGYWGQGTQVTVSS | low polyreactivity |
| QVQLVESGGGLVQAGGSLRLSCAASGFTCARYALGWYRQAPGQERELVASITWNGGRTYYAASVKGRFTISRDNAKNTVYLQMNSLKPEDTAVYYCAKDTRYTRYEYWGQGTQVTVSS | high polyreactivity |
| QVQLVESGGVLVQAGGSLRLSCAASGSTSYNNAMGWYREAPGKEREFVAAISSNGDRTYYADSVKGRFTISRDNPKNTVYLLMNSLKPEDTAVFYCAVRSWYNYEWGQGTQVTVSS | high polyreactivity |
| QVQLVESGGGLVQAGGSLRLSCAASGLIIPVYVMGWYRQAPGKERELVADITTVGSTYADSVKGRFTISRDNAKNTVYLQMNSLQPEDTAVYYCAADPPAPQYWWDHGNYWGQGTQVTVSS | low polyreactivity |
| QVQLVESGGGLVQAGGSLRLSCAASGSIFGPNAMGWYRQAPGKERELVAAITLSGGSTYYADSVKGRFTISRDNAKNTVYLQMNSLKPEDTAVYYCNADLLPADAPLWVTGGDYWGQGTQVTVSS | low polyreactivity |
| QVQLVESGGGLVQAGGSLRLSCAASGSARYAMGWYRQAPGKERELVAAISRRGGSTFYADSVKGRFTISRDNAKNTVYLQMNSLKPEDTAVYYCAADGRISYDYWGQGTQVTVSS | low polyreactivity |
| QVQLVESGGGLVQAGGSLRLSCAASGSTFSRYAMGWYRQAPGKERELVAAISSDGTTYYADSVKGRFTISRDNAKNTVYLQMNSLKPEDTAVYYCAKRGYYRSRRYDYWGQGTQVTVSS | high polyreactivity |
| QVQLVESGGGLVQAGGSLRLSCAASGFTFDSYAMGWYRQAPGKERELVAAITSSGGRTYYADSVKGRFTISRDNAKNTVYLQMNSLKPEDTSVYYCAARAISNFGYWGQGTQVTVSS | high polyreactivity |
| QVQLQESGGGLVQAGGDLRLTCAASGNIFRDYIMGWYRQAPGKEREFVAGIDRGANTNYADSVKGRFTISRDNAKNTVYLQMNSLKPEDTAVYYCAVHTAIVPDFIYWGQGTQVTVSS | low polyreactivity |
| QVQLVESGGGLVQAGGSLRLSCAASGSTFKRNAMGWYRPATGKERELVATITRRGGSTYADSVKGRFTISRDNAKNTVYLQMNSLKPEDTAVYYCNADSRPLSTYYYWGQGTQVTVSS | low polyreactivity |
| QVQLVESGGGLDQAGGSLRLSFAASGLIFAVYAMGWYRQAPGKERELVAGISASAASTYYADSVKGRFTISRDNAKNTVYLQMNSLKPEDTAVYYCAAGFYRRGKYDYWGQGTQVTVSS | high polyreactivity |
| QVQLVESGGGLVQAGGSLRLSCAASGRTFTVYGMGWYRQAPGKEREFVATISRRGGRTYYADSVKGRFTISRDNAKNTVYLHMNSLKPEDTAVYYCNADIGTYVRSGGGDFWGQGTQVTVSS | low polyreactivity |
| QVQIVESGGGLVQAGGSLRLSCAASRIIFSTYAMGWYRQAPGKEREFVAAITSTGSTNYADSVKGRFTISRDNEKNTVYLQMNSLKPEDTAVYYCAARYAGPSPTDTGHDYWGQGTQVTVSS | low polyreactivity |
| QVQLVESGGGLVQAGGSLLLSCAASGSTFTQYAMGWYRQAPGKERELVAAINSRGDSTYYADSVKGRFTISRDNAKNTVYLQMNSLKPEDTAVYYCAKDPFPWALFDYWGQGTQVTVSS | low polyreactivity |
| QVQLVESGGGLVQAGGSLRLSCAASGSTFERYVMGWYRQRLGKKGSWLPVLNHNGGSTYYADSVKGRFTISRDNAKNTVYLQMNSLKPEDTAVYYCAASFRTVLDFGYWGQGTQVTVSS | low polyreactivity |

Source: the nanobody polyreactivity screen of Harvey et al. (2022)
